Legend:
mouse 3T3-L1 fibroblasts = experiment: Gene expression in 3T3-L1 fibroblasts (q-PCR); assay type: cell-based; details: dose-response
Procedure: 3T3-L1 cells (a murine fibroblast cell line) were split onto 12-well plates and grown to confluence before inducing differentiation by treatment with 86 nM insulin, 0.1 μM dexamethasone, and 250 μM methyl isobutylxanthine. Two days after induction, cells were switched to an inducing medium in the presence of recombinant RUCILPs, or commercial recombinant irisin (Sigma, #SRP8039-10UG and Phoenix pharmaceuticals, #067-29A), or phosphate buffered saline (PBS) for two days. Subsequently, cells were maintained in 86 nM insulin in the presence of indicated concentrations of recombinant RUCILPs, 21-AABP1, commercial recombinant irisin, or PBS for four days with medium change every other day for 6 days. Cells were then harvested for q-PCR analysis as described in standard protocol for gene expression analysis.
Total RNA from cells or tissues was extracted according to the instructions provided by manufacturer of RNeasy mini kit (Qiagen) using QIAzol lysis reagent (Qiagen), followed by measurements of RNA purities and concentrations by NanoDrop 2000 spectrophotometer (Thermo Scientific). A total of 1 μg of RNA was used for the reverse transcription to cDNA using the iScript™ Select cDNA Synthesis Kit (Bio-Rad Laboratories). The samples were subjected to real-time PCR using the LC480 system (Roche Diagnostics) after premixing with Precision®PLUS Master Mix (Primer Design). For each indicated gene, samples were run in duplicate in a 384-well plate and ΔΔCt method was used for quantifying the expressions after normalization to the housekeeping Rpl36 or GAPDH gene.
Firstly, we tested the dose-response effects of RUCILPs on gene expression in mouse fibroblasts (3T3-L1), mouse […] (MLO-Y4), and mouse myoblasts (C2C12). To estimate effect on adipocyte browning, we measured expression of Ucp1, Prdm16, Pgc1a, Dio2 and Cox2, and expression of AdipoQ was measured as a marker of white adipocytes. As a marker of bone formation, we measured expression of Sclerostin; and markers of myotube formation included expression of Heyl, Sox3, and Stat3.

[1] = test system: MLO-Y4 (murine long bone osteocyte-Y4) cell line; experiment: Sclerostin mRNA expression in MLO-Y4 cells; assay type: cell-based, mouse; details: for sclerostin expression levels: 150 nM, 24 h
Procedure: FIG. 11. […] The cells were incubated with FreeStyle293 medium for 4 hr and treated for 16 hr with indicated concentrations of RUCILP2 or irisin (Upper panel), with the addition at pretreatment with vehicle (phosphate-buffered saline) or 10 μM of integrin inhibitor cRGDyK for 10 min (Lower panel). Data are represented as mean±SEM, n=3 wells/group. Significant differences between two groups were evaluated using a two-tailed, unpaired Student's t test. Upper panel, *, p<0.05, **, p<0.01, #, p<0.05, ##, p<0.01, when compared with the blank group. Lower panel, *, p<0.05, when compared with the vehicle group.
MLO-Y4 cells were donated by Prof Moustapha Kassem from the University of Southern Denmark. The cells were seeded on type I collagen-coated 6-well plates under Minimum Essential Medium (α-MEM from Fisher Scientific, #15430584), supplemented with 2.5% Fetal Bovine Serum (FBS from Fisher Scientific, #11550356), 2.5% calf serum (Hyclone, SH30072.03), and 1% Penicillin-Streptomycin (Fisher Scientific, #11548876). Cell cultures were maintained in a humidified chamber with 5% CO2 at 37° C., and culture media were changed every 2-3 days.
At 60% confluence, medium was switched to FreeStyle293 Expression medium after washing with warm PBS. After 4 hours incubation, the cells were treated with recombinant RUCILP2 or commercial recombinant irisin (Sigma, #SRP8039-10UG and Phoenix pharmaceuticals, #067-29A) or saline for 24 h. For integrin inhibitor treatment, cells were treated with 10 μM of CycloRGDyK (Selleckchem, #S7844) for 10 minutes and washed with PBS before treated with recombinant RUCILP2 or commercial recombinant irisin or saline. After treatments, MLO-Y4 cells were harvested for qRT-PCR analysis of the mRNA level of sclerostin as described in gene expression analysis. […]

B1: RUCILP1: 88 amino acid FNIII domain polypeptide of RUMTOR_00181 from Ruminococcus torques (protein)
chain: APVDVKVSEVTETSAKVSWKNAADGKEAAGYNVYVDGTKVNEELIAETTYNVSSLKDGTTYSVEVTAVDAAGEESAKSEKVEFTTVKK
modifications: Ruminococcus torques
notes: 88 amino acid FNIII domain polypeptide of RUMTOR_00181 from Ruminococcus torques
B1 was tested, and the Adiponectin expression (mouse 3T3-L1 fibroblasts) was “down-regulating”, the “markers of adipocyte browning (Ucp1, Prdm16, Pgc1a, Dio2, Cox2)” value (mouse 3T3-L1 fibroblasts) was “up-regulate” and the sclerostin expression levels [1] was “increase”.

B2: RUCILP2: 87 amino acid irisin-like polypeptide cleaved from the Ruminococcus torques FNDC5-like protein RUMTOR_00181; recombinant, 6-His-tagged from E. coli (protein)
chain: APVDVKVSEITETSAKASWKNAADGKEAAGYNVYVDGVKLNKELLTEASCGLTNLKAETTYFVEVTAVDAAGNESVKSEKVTFKTLK
modifications: 6-His tag; Ruminococcus torques
notes: 87 amino acid irisin-like polypeptide cleaved from the Ruminococcus torques FNDC5-like protein RUMTOR_00181; recombinant, 6-His-tagged from E. coli
With B2 the Adiponectin expression (mouse 3T3-L1 fibroblasts) was “down-regulating”, the “markers of adipocyte browning (Ucp1, Prdm16, Pgc1a, Dio2, Cox2)” value (mouse 3T3-L1 fibroblasts) was “up-regulate” and the sclerostin expression levels [1] was “increase”. The sclerostin expression ([1]; MLO-Y4 cells, treated 16 hr) was “stimulates sclerostin expression”.
